Source: PMC11610247

Legend:
[1] = target: SNAP-flag-tagged WT GLP1R (glucagon-like peptide 1 receptor) (human) (UniProt P43220); assay: AlphaScreen or HTRF
[2] = target: SNAP-flag-tagged GLP1R p.R380C (human) (UniProt P43220); assay: AlphaScreen or HTRF

Substance	pIC50 [1]	IC50 [2] [nM]
exendin-4 (from UniProt P26349 48-87) (peptide; other documents disagree on this pair)	8.13	–
exendin-4 (from UniProt P26349 48-87) (peptide)	–	400
